Measurements taken from US5840673, “Insulin-like growth factor binding protein 3 (IGF-BP3) in treatment of p53-related tumors” (Bristol-Myers Squibb Company).

B1: IGF-BP3 Box A (dsDNA)
DNA 1: TCGAGAAAACAAGCCACCAACATGCTTGC
DNA 2: GCAAGCATGTTGGTGGCTTGTTTTCTCGA
B2: IGF-BP3 Box B (dsDNA)
DNA 1: TCGAGAGGAGGGCAAGACCTGCCAAGCCTGGGTA
DNA 2: TACCCAGGCTTGGCAGGTCTTGCCCTCCTCTCGA

Biological target: p53 (His-tagged, wild type) (Homo sapiens, UniProt P04637 P04637:1-393)
Assay: EMSA; binding potentiated and supershifted by PAb421
Conditions: tags: His fusion, baculovirus-produced; chain copies: 4

Chain of p53 (His-tagged, wild type) (P04637 whole entry, one chain of several): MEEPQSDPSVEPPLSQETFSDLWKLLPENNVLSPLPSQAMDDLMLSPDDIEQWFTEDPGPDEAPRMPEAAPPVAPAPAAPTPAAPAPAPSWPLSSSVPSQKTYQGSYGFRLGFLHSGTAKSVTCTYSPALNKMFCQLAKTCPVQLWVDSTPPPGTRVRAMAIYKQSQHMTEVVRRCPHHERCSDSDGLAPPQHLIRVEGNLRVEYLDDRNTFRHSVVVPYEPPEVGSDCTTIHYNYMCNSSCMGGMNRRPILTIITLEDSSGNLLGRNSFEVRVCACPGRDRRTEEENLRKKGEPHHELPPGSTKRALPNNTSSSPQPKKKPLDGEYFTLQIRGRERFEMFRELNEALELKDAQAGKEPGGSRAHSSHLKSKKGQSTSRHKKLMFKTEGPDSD

Row | Binder | binding result
1 | B1 | binds
2 | B2 | binds
